Biological target: membrane bound human OX40L on CHO-KI cells (human) (UniProt P23510)
Experiment: cell-based or functional assay

membrane bound human OX40L on CHO-KI cells (human), sequence (P23510 whole entry): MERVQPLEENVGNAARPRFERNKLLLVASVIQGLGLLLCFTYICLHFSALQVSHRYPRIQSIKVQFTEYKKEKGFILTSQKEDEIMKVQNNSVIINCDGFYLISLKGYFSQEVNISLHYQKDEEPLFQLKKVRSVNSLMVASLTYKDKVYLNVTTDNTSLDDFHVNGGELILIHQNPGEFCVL

PBMC activity assay IC50: 2.5 nM | fold better potency in the OX40L-driven PBMC activity assay against the non-affinity matured counterpart (15B07): 20 fold | fold better potency in the PBMC activity assay against F-027100179: 10 fold
B1: ISVD construct F027100172 (protein, part only; not given: anti-IL-13 building blocks, part only)
chain, part: DVQLVESGGGVVQPGGSLRLSCAASRSIGRYDRMGWYRHRPGEPRELVATITGGSSINYGDSVKGRFTISIDNSKNTVYLQMNSLRPEDTALYYCNFNKYQISRDTWGQGTLVTVSSGGGGSGGGSGGGGSGGGSEVQLVESGGGVVQPGGSLRLSCAASGFTFRSFGMSWVRQAPGKGPEWVSSISGSGSDTLYADSVKGRFTISRDNSKNTLYLQMNSLRPEDTALYYCTIGGSLSRSSQGTLVTVSSGGGGSGGGS
